Test results from patent publication US20220259322A1 (WASHINGTON UNIVERSITY, published 2022).

Legend:
[1] = target: T1, peptide 90; test: peptide dot blot on nitrocellulose, chemiluminescence
T1 construct: 12-mer from the C-terminus of GRP78
T1 peptide: PPTGEEDTAEKD
Procedure: Seven peptides were synthesized from the c-terminus of GRP78. Each peptide was a 12-mer with 5 amino acid overlap. Each of the peptide was coated in duplicate on nitrocellulose membrane and incubated with 7A9 antibody. After washing, the blot was developed using chemiluminescence. The arrows indicate positive spot.
(§1) Seven peptides were synthesized from the c-terminus of GRP78. Each peptide was a 12-mer with 5 amino acid overlap. The sequences of the peptides are shown above. Each of the peptide was coated in duplicate on nitrocellulose membrane and incubated with 7A9 antibody. After washing, the blot was developed using chemiluminescence. The arrows indicate positive spot, FIG. 4. 7A9 epitope: SEQ ID NO: 70 ([…] . . . EDTAE). FIG. 5A-5B Epitope mapping of 6F8 antibody was performed using Biacore T200. 6F8 was immobilized on the CM5 sensor chip and peptides 86-90 (overlapping peptides in the immunogen region of 6F8) were passed as analyte. Relative binding response (response on blank channel subtracted from the 6F8 immobilized channel) of each peptide to 6F8 was analyzed using the BIAevaluation software. Cut-off for nonbinding peptides is 0 RU. Three-dimensional model of GRP78 protein indicating the epitope sequence on the protein in magenta color. The figure was generated using Pymol software.

[2] = target: T2, 78-kDa glucose-regulated protein (GRP78) (UniProt P11021 19-654); test: flow cytometry, H460 cells, gMFI, one site-specific binding fit; no unit beside the number, x axis in nM; all points lie at gMFI about 1000-1400, so the fit rests on no point of the rising part
T2 construct: 'peptides 86-90' in Biacore; also called BiP; HSP5a
Procedure: (§2) FIG. 11A-11B show flow cytometry for cell surface binding of 7A9 antibody to H460 cells. FIG. 11A is the flow cytometry assay for cell surface binding of 7A9 antibody to H460 cells. Binding conditions: 0.1×10⁶ cells incubated with 3-fold dilutions of antibody started at 1.0 μM. Cells were washed 2× with FACS buffer. Stained with secondary antibody. Washed twice and analyzed in FACS buffer by flow cytometer FACS Canto II (BD). Geometric mean fluorescence intensity was fitted using the One site-specific binding in Graphpad Prism software.

[3] = target: T3, peptide 87; test: Biacore T200, 7A9 immobilized on CM5 chip, peptide as analyte, blank-subtracted relative response
T3 construct: 12-mer from the C-terminus of GRP78
T3 peptide: KKELEEIVQPII
Procedure: (§3) FIG. 6A depicts a graph of the relative response binding of 7A9. Epitope mapping was performed using Biacore T200. 7A9 was immobilized on the CM5 sensor chip and peptides 86-90 (overlapping peptides in the immunogen region of 7A9) were passed as analyte. Relative binding response (response on blank channel subtracted from the 7A9 immobilized channel) of each peptide to 7A9 was analyzed using the BIAevaluation software. Cut-off for nonbinding peptides is 0 RU. […] The figure was generated using Pymol software (SEQ ID NO: 70).
(§4) FIG. 6A-6B Epitope mapping of 7A9 antibody was performed using Biacore T200. 7A9 was immobilized on the CM5 sensor chip and peptides 86-90 (overlapping peptides in the immunogen region of 7A9) were passed as analyte. Relative binding response (response on blank channel subtracted from the 7A9 immobilized channel) of each peptide to 7A9 was analyzed using the BIAevaluation software. Cut-off for nonbinding peptides is 0 RU. Three-dimensional model of GRP78 protein indicating the epitope sequence on the protein in red color. The figure was generated using Pymol software.

[4] = target: T4, peptide 89; test: as above
T4 construct: 12-mer from the C-terminus of GRP78
T4 peptide: LYGSAGPPPTGE
Procedure: as §3, §4

[5] = target: T5, peptide 86; test: as above
T5 construct: 12-mer from the C-terminus of GRP78
T5 peptide: IEDFKAKKKELE
Procedure: as §3, §4

[6] = target: T2, 78-kDa glucose-regulated protein (GRP78); test: flow cytometry, H460 cells, gMFI, 4PL fit; x axis of panel B is printed 'Log10 [6F8] nM' although title and legend say 7A9
Procedure: as §2, with “Geometric mean fluorescence intensity was fitted using the One site-specific binding in Graphpad Prism software.” left out

[7] = target: T2, 78-kDa glucose-regulated protein (GRP78); test: flow cytometry, H460 cells, gMFI minus secondary only, one site-specific binding fit; no unit beside the number, x axis in nM
Procedure: as §2, with “9A-9B are graphs showing the” for “11A-11B show flow cytometry for”, “6F8” for “7A9 antibody”, “FIG. 11A is the flow cytometry assay for cell surface binding of 7A9 antibody to H460 cells.” left out, “0.1×10^6” for “0.1×10⁶”, “0.7” for “1.0”

[8] = target: T2, 78-kDa glucose-regulated protein (GRP78); test: flow cytometry, H460 cells, gMFI minus secondary only, 4PL fit
Procedure: FIG. 9A-9B are graphs showing the cell surface binding of 6F8 to H460 cells. […] Binding conditions: 0.1×10^6 cells incubated with 3-fold dilutions of antibody started at 0.7 μM. Cells were washed 2× with FACS buffer. Stained with secondary antibody. Washed twice and analyzed in FACS buffer by flow cytometer FACS Canto II (BD). […]

[9] = target: T6, C-terminal GRP78 peptide; test: ELISA on C-terminal GRP78 peptide
T6 construct: name from the legend, the sheet prints only 'GRP78 Hybridoma ELISA'

[10] = target: T2, 78-kDa glucose-regulated protein (GRP78); test: flow cytometry, A549 cells, gMFI minus secondary only, 4PL fit
Procedure: (§5) FIG. 7A-7B show graphs of flowcytometry data for the cell surface binding of GRP78 antibodies. […] Binding conditions: 0.1×10⁶ cells incubated with 3-fold dilutions of antibody started at 2.22 μM. Cells were washed 2× with FACS buffer. Stained with secondary antibody. Washed twice and analyzed in FACS buffer by flow cytometer FACS Canto II (BD). Geometric mean fluorescence intensity was fitted using the “One site-specific binding” in Graphpad Prism software.
(§6) A Flow cytometry assay for cell surface binding of 6F8 antibody to A549 cells was done (FIG. 7A-7B). Binding conditions: 0.1×10⁶ cells incubated with 3-fold dilutions of antibody started at 2.22 μM. Cells were washed 2× with FACS buffer. Stained with secondary antibody. Washed twice and analyzed in FACS buffer by flow cytometer FACS Canto II (BD). Geometric mean fluorescence intensity was fitted using the “One site-specific binding” in Graphpad Prism software. Graph showing the same data as in A fitted using the “Sigmoidal, 4PL, X is log(concentration)” in Graphpad Prism software (FIG. 7B).

[11] = target: T3, peptide 87; test: Biacore T200, 6F8 immobilized on CM5 chip, peptide as analyte, blank-subtracted relative response
Procedure: as §3, with “5A-5B show the epitope mapping of 6F8 antibody. FIG. 5A” for “6A”, “binding.” for “binding of 7A9.”, “6F8” for “7A9”, “6F8)” for “7A9)”, “71).” for “70).”
as §1

[12] = target: T1, peptide 90; test: as above
Procedure: as §3, with “5A-5B show the epitope mapping of 6F8 antibody. FIG. 5A” for “6A”, “binding.” for “binding of 7A9.”, “6F8” for “7A9”, “6F8)” for “7A9)”, “71).” for “70).”
as §1

[13] = target: T4, peptide 89; test: as above
Procedure: as §3, with “5A-5B show the epitope mapping of 6F8 antibody. FIG. 5A” for “6A”, “binding.” for “binding of 7A9.”, “6F8” for “7A9”, “6F8)” for “7A9)”, “71).” for “70).”
as §1

[14] = target: T5, peptide 86; test: as above
Procedure: as §3, with “5A-5B show the epitope mapping of 6F8 antibody. FIG. 5A” for “6A”, “binding.” for “binding of 7A9.”, “6F8” for “7A9”, “6F8)” for “7A9)”, “71).” for “70).”
as §1

[15] = target: T7, peptide 88; test: as above
T7 construct: 12-mer from the C-terminus of GRP78
T7 peptide: VQPIISKLYGSA
Procedure: as §3, with “5A-5B show the epitope mapping of 6F8 antibody. FIG. 5A” for “6A”, “binding.” for “binding of 7A9.”, “6F8” for “7A9”, “6F8)” for “7A9)”, “71).” for “70).”
as §1

[16] = target: T2, 78-kDa glucose-regulated protein (GRP78); test: flow cytometry, A549 cells, gMFI minus secondary only, one site-specific binding fit; no unit beside the number, x axis in nM
Procedure: as §5, §6

T2 sequence (P11021 19-654 limits assumed): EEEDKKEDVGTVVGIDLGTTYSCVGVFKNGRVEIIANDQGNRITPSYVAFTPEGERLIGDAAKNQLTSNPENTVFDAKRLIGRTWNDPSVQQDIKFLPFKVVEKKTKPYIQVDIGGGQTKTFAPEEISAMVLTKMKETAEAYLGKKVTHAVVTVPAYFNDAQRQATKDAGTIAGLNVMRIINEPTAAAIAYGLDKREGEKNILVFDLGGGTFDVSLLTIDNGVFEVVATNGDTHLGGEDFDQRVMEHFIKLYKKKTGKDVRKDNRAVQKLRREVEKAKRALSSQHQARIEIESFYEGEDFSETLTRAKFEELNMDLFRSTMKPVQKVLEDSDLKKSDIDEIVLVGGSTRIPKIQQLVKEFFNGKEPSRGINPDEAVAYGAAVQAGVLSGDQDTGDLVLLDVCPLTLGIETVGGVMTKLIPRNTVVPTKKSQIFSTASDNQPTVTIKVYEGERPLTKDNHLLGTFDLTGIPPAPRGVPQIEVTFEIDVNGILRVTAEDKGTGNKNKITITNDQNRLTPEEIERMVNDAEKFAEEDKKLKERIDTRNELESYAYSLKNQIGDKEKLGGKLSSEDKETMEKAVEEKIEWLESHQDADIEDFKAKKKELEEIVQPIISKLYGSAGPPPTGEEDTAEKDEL
T6 sequence (P11021 other isoform, or with tags, fused parts or gaps): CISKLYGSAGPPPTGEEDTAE

B1: 7A9 anti-GRP78 mouse monoclonal antibody (antibody, V domains shown)
VH: EVQLVETGGGLVQPKGSLKLSCAVSGITFNINAMNWVRQAPGKGLEWVARIRSKSNNYATYYADSVKDRFTISRDDSQSMLYLQMNNLKTEDTAMYYCVRDITRAGYFDVWGAGTTVTVSS
VL: QIVLTQSPAIMSASPGEKVTITCSASSSVIYMHWFQQKPGTSPKLWIYSTSNLASGVPARFSGSGSGTSYSLTISRMEAEDAATYYCQQRSSYPLTFGAGTKLELK
Question: Does B1 bind [1]?
Answer: binds

Question: What about the Kd [2] of the same binder?
Answer: 0.000108 µM

Question: Does B1 bind [3]?
Answer: no binding

Question: Does B1 bind [4]?
Answer: no binding

Question: Does B1 bind [5]?
Answer: no binding

Question: What about the “EC50 (read off the curve)” value [6] of the same binder?
Answer: ~0.04 µM

B2: 6F8 anti-GRP78 mouse monoclonal antibody (antibody, V domains shown)
VH: EVQLVESGGGLVRPKGSLKLSCAASGFTLNTSAMNWVRQVPGKGLEWVGRIRSKNYNYATYYADSVKDRFTIFRDDSQNMLYLQMNNLKTEDTAMYYCVRPPGFAYWGQGTLVTVSA
VL: DIQMTQSPSSLSASLGERVSLTCRTSQEISGHLSWLQQKPDGTIKRLIYAASSLDSGVPKRFSGSRSGSDYSLTISSLESEDFADYYCLQYSSYPYTFGGGTKLEIK
Question: B2 was tested. Which Kd [7] did it give?
Answer: 0.0358 µM

Question: What about the “EC50 (read off the curve)” value [8] of the same binder?
Answer: ~0.1 µM

Question: What about the “EC50 (read off the curve)” value [9] of the same binder?
Answer: ~1 µM

Question: And the “EC50 (read off the curve)” value [10]?
Answer: ~0.05 µM

Question: Does B2 bind [11]?
Answer: no binding

Question: Does B2 bind [12]?
Answer: binds

Question: Does B2 bind [13]?
Answer: no binding

Question: Does B2 bind [14]?
Answer: no binding

Question: Does B2 bind [15]?
Answer: no binding

Question: What about the Kd [16] of the same binder?
Answer: 0.0164 µM
